Data: patent US20250243274A1 (JIBE THERAPEUTICS, published 2025)

Target: the molecule itself
Experiment: SDS-PAGE, no laddering in the reduced lane

B1: JIB34 (bispecific antibody)
heavy: QVQLQQPGAELVKPGASVKMSCKASGYTFTNYWINWVKQRPGQGLEWIGDIYPGGGITNYNEKFKTKATLTLDTSSSTVYMQLSSLTSEDSAVYYCSRSYGKYFDYWGQGTTLIVSSASTKGPSVFPLAPSSKSTSGGTAALGCLVKDYFPEPVTVSWNSGALTSGVHTCPAVLQSSGLYSLSSVVTVPSSSLGTQTYICNVNHKPSNTKVDKKVEPKSSDKTHTGGHHHHHH
light: DIKMTQSPSSMYASVGERVTITCKASQDIKSYLTWYQKKPWKSPRTLIFYSTRLADGVPSRFSGSGSGQDFSLTISSLESDDTATYYCLQHDESPFTFGGGTKLEIKRTVAAPSVFIFPPSDEQLKSGTASVVCLLNNFYPREAKVQWKVDNALQSGNSQESVTEQDSKDSTYSLCSTLTLSKADYEKHKVYACEVTHQGLSSPVTKSFNRGESGGGGSGGGGSGGGGSDIQMTQSPSSLSASVGDRVTITCRASQDIRNYLNWYQQKPGKAPKLLIYYTSRLESGVPSRFSGSGSGTDYTLTISSLQPEDFATYYCQQGNTLPWTFGQGTKVEIKGGGGSGGGGSGGGGSEVQLVESGGGLVQPGGSLRLSCAASGYSFTGYTMNWVRQAPGKGLEWVALINPTKGVSTYNQKFKDRFTISVDKSKNTAYLQMNSLRAEDTAVYYCARSGYYGDSDWYFDVWGQGTLVTVSS
notes: HP6017 Fab (bDS) with HzUCHT1 scFv on the light chain; also called anti-Fc HP6017 HzUCHT1 IgR
binding result: no binding
